“And” between values parts separate entries of the source, which are not always exact repeats. Equal values may be shown once.
Biological target: recombinant L. infantum GDP-mannose pyrophosphorylase (LiGDP-MP) (Leishmania infantum)
Assay: SEC; Superdex 200 10/300 GL, 50 mM Tris-HCl pH 7.5, 1 M NaCl, 1 mM DTT, 10% glycerol; concentrated Ni-NTA fractions loaded; sizes estimated from elution volumes against standard proteins

stoichiometry N: 6 and 3
Substance: recombinant L. infantum GDP-mannose pyrophosphorylase (LiGDP-MP) (enzyme)

Reference: publication PMC8877407
